From patent US20260098095A1
Substitutions are numbered along the chain they refer to. One block for each binder: values may come before it.

% of MAGE-A4 signal, Jurkat-NFAT; grey (>2%) (TRANK1): 7.67% | % of MAGE-A4 signal, Jurkat-NFAT; grey (>2%) (AGFG2): 13.3% | % of MAGE-A4 signal, Jurkat-NFAT; grey (>2%) (DPYSL2): 5.19%
B1: Molecule B (bispecific antibody, V domains shown)
VH 1: YPQLVESGGGLVKPGGSLRLSCAARYPFTRLDMSWVRQAPGKGLEWVGSISPKGGSTYYNDNVLGRFTISRDNSKNTLYLQMNSLRAEDTAVYYCARDWGFFDNWGQGTLVTVSS
VL 1: AIQMTQSPSSLSASVGDRVTITCRASQSISNYLAWYQQKPGKAPKLLIYNASHPEYDVPSRFSGSGSGTDFTLTISSLQPEDFATYYCQQYSSHPYTFGQGTKLEIK
VH 2: not shown
VL 2: QAVVTQEPSLTVSPGGTVTLTCGSSTGAVTTSNYANWVQEKPGQAFRGLIGGTNKRAPGTPARFSGSLLGGKAALTLSGAQPEDEAEYYCALWYSNLWVFGGGTKLTVL

% of MAGE-A4 signal, Jurkat-NFAT; grey (>2%) (TRANK1): 4.56% | % of MAGE-A4 signal, Jurkat-NFAT; grey (>2%) (AGFG2): 86.5%
B2: Molecule A (bispecific antibody, V domains shown)
VH 1: B1 VH 1 with P2V, R25P, Y26L, R30G, N104L
VL 1: B1 VL 1 with N50D, S52N, H53A, P54H, Y56N
VH 2: not shown
VL 2: B1 VL 2
